The values that follow come from patent publication US20230212294A1 (MINGHUI PHARMACEUTICAL SHANGHAI, published 2023).

For assay [1], the target named is T1, B7-H3 endogenously expressed on human tumor cell lines (human, UniProt Q5ZPR3 29-534).
T1 construct: whole, on cells; The cell line is named in the assay or readout field of each row; also called NCI-H322 cells endogenously expressing B7-H3; B7-H3-positive human tumor cell lines NCI-H1975, BxPC-3, Calu-6
T1 sequence (looked up): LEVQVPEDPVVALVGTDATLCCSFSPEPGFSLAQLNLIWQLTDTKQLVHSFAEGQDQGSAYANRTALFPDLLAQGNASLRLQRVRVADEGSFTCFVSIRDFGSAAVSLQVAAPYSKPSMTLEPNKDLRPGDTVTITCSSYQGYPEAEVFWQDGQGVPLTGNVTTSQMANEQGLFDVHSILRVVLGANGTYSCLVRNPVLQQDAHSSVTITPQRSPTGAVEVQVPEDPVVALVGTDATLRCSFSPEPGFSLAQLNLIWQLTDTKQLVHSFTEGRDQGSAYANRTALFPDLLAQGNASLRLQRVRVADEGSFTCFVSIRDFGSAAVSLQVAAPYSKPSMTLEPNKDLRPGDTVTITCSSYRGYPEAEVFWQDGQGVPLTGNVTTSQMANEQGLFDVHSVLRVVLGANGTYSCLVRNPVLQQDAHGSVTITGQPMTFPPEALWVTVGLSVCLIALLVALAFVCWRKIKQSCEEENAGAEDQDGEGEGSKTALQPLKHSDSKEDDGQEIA
Briefly: flow cytometry on NCI-H322 cells. On the procedure:
(§1) CHOK cells overexpressing B7-H3 or NCI-H322 cells endogenously expressing B7-H3 were added to a round-bottom 96-well plate at 100,000 cells per well, centrifuged to remove the supernatant, and then added with a gradient-diluted anti-B7-H3 antibody and incubated at 4 degrees for 1 h. After incubation, the cells were washed twice with FACS buffer (PBS containing 2% FBS), then added with fluorescent-labeled goat anti-human secondary antibody (Abcam, ab98596) and incubated for 0.5 h. After incubation, the cells were washed twice with FACS buffer, then resuspended with FACS buffer and detected with flow cytometry (Beckman, cytoFlex).
In general terms: Flow cytometry measures light scatter and fluorescence of single cells or particles in a stream.

The target in assay [2] is T2, B7-H3 on CHOK cells overexpressing B7-H3.
T2 construct: whole, on cells; also called CHO cells that artificially express B7-H3; B7-H3-expressing CHO cells
T2 sequence (Q5ZPR3 whole entry, species assumed, looked up): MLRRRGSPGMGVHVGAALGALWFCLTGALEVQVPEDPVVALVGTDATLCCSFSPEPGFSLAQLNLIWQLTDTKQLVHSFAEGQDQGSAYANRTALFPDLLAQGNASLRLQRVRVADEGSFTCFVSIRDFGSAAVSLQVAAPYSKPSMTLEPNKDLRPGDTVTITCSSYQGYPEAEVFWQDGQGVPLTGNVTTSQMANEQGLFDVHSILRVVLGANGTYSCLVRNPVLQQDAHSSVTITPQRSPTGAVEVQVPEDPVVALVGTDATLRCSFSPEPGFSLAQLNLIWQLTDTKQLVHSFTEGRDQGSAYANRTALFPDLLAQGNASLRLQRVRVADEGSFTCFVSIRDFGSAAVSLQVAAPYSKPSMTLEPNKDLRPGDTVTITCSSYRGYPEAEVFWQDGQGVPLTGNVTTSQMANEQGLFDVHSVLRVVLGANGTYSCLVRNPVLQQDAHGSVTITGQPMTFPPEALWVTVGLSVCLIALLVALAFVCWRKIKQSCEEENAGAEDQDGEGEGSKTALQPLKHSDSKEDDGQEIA
Briefly: flow cytometry on CHOK cells overexpressing B7-H3. As for the experimental part: as §1

B1: IL-P5-C06-H2L3 (antibody, V domains shown)
VH: QVQLVQSGAEVKKPGASVKVSCKGSGYTFTDYAIHWGRQAPGQGLEWIGIINTYNGNSNYAQKFQGRATMTRDTSTSTAYMELSRLRSEDTAVYYCARNYGSSFNWYFDVWGQGTTVTVSS
VL: DIQLTQSPSSLSASVGDRVTITCRASSSISSNYLHWYQQKPGKAPKLLIYSTSNLASGVPSRFSGSGSGTDFTLTISSLQPEDFATYYCQQYSGYPLTFGQGTKLELK
notes: Humanized from IL-P5-C06; full-length antibody; also called ILP5C06huVH2 + ILP5C06huVL3
Broadly, the EC50 is the concentration at which the effect is half-maximal. The low end stands for higher potency in that assay, the high end for lower potency in that assay. As to B1, the EC50 in assay [1] was found to be 0.0618 µg/mL; in assay [2] it was 0.826 µg/mL.

B2: IL-P5-C06-H1L1 (antibody, V domains shown)
VH: QVQLVQSGAEVKKPGASVKVSCKGSGYTFTDYAIHWARQAPGQGLEWIGIINTYNGNSNYAQKFQGRATMTVDKSTSTAYMELSRLRSEDTAVYYCARNYGSSFNWYFDVWGQGTTVTVSS
VL: DIQLTQSPSSMSASVGDRITITCRASSSISSNYLHWYQQKPGKSPKLLIYSTSNLASGVPSRFSGSGSGTDYTLTISSVQPEDFATYYCQQYSGYPLTFGQGTKLELK
notes: Humanized from IL-P5-C06; full-length antibody; also called ILP5C06huVH1 + ILP5C06huVL1
As for B2, the figures for the EC50 in assay [1] and in assay [2] were 0.0895 µg/mL and 1.05 µg/mL, respectively.

B3: IL-P5-C06-H2L4 (antibody, V domains shown)
VH: QVQLVQSGAEVKKPGASVKVSCKGSGYTFTDYAIHWGRQAPGQGLEWIGIINTYNGNSNYAQKFQGRATMTRDTSTSTAYMELSRLRSEDTAVYYCARNYGSSFNWYFDVWGQGTTVTVSS
VL: DIQMTQSPSSLSASVGDRVTITCRASSSISSNYLHWYQQKPGKAPKLLIYSTSNLQSGVPSRFSGSGSGTDFTLTISSLQPEDFATYYCQQYSGYPLTFGQGTKLELK
notes: Humanized from IL-P5-C06; full-length antibody; also called ILP5C06huVH2 + ILP5C06huVL4
On to B3, for which the results for the EC50 in assay [1] and in assay [2] were 0.0576 µg/mL and 0.747 µg/mL, respectively.

B4: IL-P5-C06-H3L4 (antibody, V domains shown)
VH: QVQLVQSGAEVKKPGASVKVSCKASGYTFTDYAIHWGRQAPGQGLEWMGIINTYNGNSNYAQKFQGRVTMTRDTSTSTAYMELSRLRSEDTAVYYCARNYGSSFNWYFDVWGQGTTVTVSS
VL: DIQMTQSPSSLSASVGDRVTITCRASSSISSNYLHWYQQKPGKAPKLLIYSTSNLQSGVPSRFSGSGSGTDFTLTISSLQPEDFATYYCQQYSGYPLTFGQGTKLELK
notes: Humanized from IL-P5-C06; full-length antibody; also called ILP5C06huVH3 + ILP5C06huVL4
Consider B4, for which the values for the EC50 in assay [1] and in assay [2] were 0.107 µg/mL and 1.13 µg/mL, respectively.

B5: IL-P5-C06-H2L2 (antibody, V domains shown)
VH: QVQLVQSGAEVKKPGASVKVSCKGSGYTFTDYAIHWGRQAPGQGLEWIGIINTYNGNSNYAQKFQGRATMTRDTSTSTAYMELSRLRSEDTAVYYCARNYGSSFNWYFDVWGQGTTVTVSS
VL: DIQLTQSPSSLSASVGDRITITCRASSSISSNYLHWYQQKPGKAPKLLIYSTSNLASGVPSRFSGSGSGTDFTLTISSVQPEDFATYYCQQYSGYPLTFGQGTKLELK
notes: Humanized from IL-P5-C06; full-length antibody; also called ILP5C06huVH2 + ILP5C06huVL2
For B5, the figures for the EC50 in assay [1] and in assay [2] were 0.0919 µg/mL and 1.12 µg/mL, respectively.

B6: IL-P5-C06-H3L3 (antibody, V domains shown)
VH: QVQLVQSGAEVKKPGASVKVSCKASGYTFTDYAIHWGRQAPGQGLEWMGIINTYNGNSNYAQKFQGRVTMTRDTSTSTAYMELSRLRSEDTAVYYCARNYGSSFNWYFDVWGQGTTVTVSS
VL: DIQLTQSPSSLSASVGDRVTITCRASSSISSNYLHWYQQKPGKAPKLLIYSTSNLASGVPSRFSGSGSGTDFTLTISSLQPEDFATYYCQQYSGYPLTFGQGTKLELK
notes: Humanized from IL-P5-C06; full-length antibody; also called ILP5C06huVH3 + ILP5C06huVL3
For B6, the EC50 stood at 0.137 µg/mL in assay [1] and 1.18 µg/mL in assay [2].

B7: IL-P5-C06-H1L4 (antibody, V domains shown)
VH: QVQLVQSGAEVKKPGASVKVSCKGSGYTFTDYAIHWARQAPGQGLEWIGIINTYNGNSNYAQKFQGRATMTVDKSTSTAYMELSRLRSEDTAVYYCARNYGSSFNWYFDVWGQGTTVTVSS
VL: DIQMTQSPSSLSASVGDRVTITCRASSSISSNYLHWYQQKPGKAPKLLIYSTSNLQSGVPSRFSGSGSGTDFTLTISSLQPEDFATYYCQQYSGYPLTFGQGTKLELK
notes: Humanized from IL-P5-C06; full-length antibody; also called ILP5C06huVH1 + ILP5C06huVL4
For B7, the EC50 worked out at 0.0436 µg/mL in assay [1] and 0.596 µg/mL in assay [2].

B8: IL-P5-C06-H1L3 (antibody, V domains shown)
VH: QVQLVQSGAEVKKPGASVKVSCKGSGYTFTDYAIHWARQAPGQGLEWIGIINTYNGNSNYAQKFQGRATMTVDKSTSTAYMELSRLRSEDTAVYYCARNYGSSFNWYFDVWGQGTTVTVSS
VL: DIQLTQSPSSLSASVGDRVTITCRASSSISSNYLHWYQQKPGKAPKLLIYSTSNLASGVPSRFSGSGSGTDFTLTISSLQPEDFATYYCQQYSGYPLTFGQGTKLELK
notes: Humanized from IL-P5-C06; full-length antibody; also called ILP5C06huVH1 + ILP5C06huVL3
Regarding B8, the EC50 in assay [1] came out at 0.0829 µg/mL; in assay [2], 0.941 µg/mL.

B9: IL-P7-C05-H3L1 (antibody, V domains shown)
VH: EVQLVESGGGLVQPGGSLRLSCAASGFTFSSYGMSWVRQAPGKGLELVAAINSNGGSTYYADSVKGRFTISRDNAKNTLYLQMSSLRAEDTAVYYCTRNEEFRRGLAYWGQGTLVTVSS
VL: DIQMTQSPSSLSASVGDRVTITCRASENIYSNLAWYQQKPGKAPKLLVYAATNLADGVPSRFSGSGSGTDYTLTISSLQPEDFATYYCQHFWGTPPWTFGQGTKLEIK
notes: Humanized from IL-P7-C05; full-length antibody; also called ILP7C05huVH3 + ILP7C05huVL1
Turning to B9, the EC50 turned out to be 0.0109 µg/mL in assay [1] and 0.454 µg/mL in assay [2].

B10: IL-P7-C05-H1L1 (antibody, V domains shown)
VH: EVQLVESGGGLVQPGGSLRLSCAASGFTFSSYGMSWVRQAPGKGLELVATINSNGGTTYYPDSVKGRFTISRDNAKHTLYLQMSSLRAEDTAVYYCTRNEEFRRGLAYWGQGTLVTVSS
VL: DIQMTQSPSSLSASVGDRVTITCRASENIYSNLAWYQQKPGKAPKLLVYAATNLADGVPSRFSGSGSGTDYTLTISSLQPEDFATYYCQHFWGTPPWTFGQGTKLEIK
notes: Humanized from IL-P7-C05; full-length antibody; also called ILP7C05huVH1 + ILP7C05huVL1
As for B10, the EC50 was determined as 0.0107 µg/mL in assay [1] and 0.426 µg/mL in assay [2].

B11: IL-P7-C05-H2L2 (antibody, V domains shown)
VH: EVQLVESGGGLVQPGGSLRLSCAASGFTFSSYGMSWVRQAPGKGLELVATINSNGGTTYYADSVKGRFTISRDNAKNTLYLQMSSLRAEDTAVYYCTRNEEFRRGLAYWGQGTLVTVSS
VL: DIQMTQSPSSLSASVGDRVTITCRASENIYSNLAWYQQKPGKAPKLLVYAATNLQSGVPSRFSGSGSGTDYTLTISSLQPEDFATYYCQHFWGTPPWTFGQGTKLEIK
notes: Humanized from IL-P7-C05; full-length antibody; also called ILP7C05huVH2 + ILP7C05huVL2
Turning to B11, the EC50 in assay [1] worked out at 0.0145 µg/mL; in assay [2] it was 0.455 µg/mL.

B12: IL-P7-C05-H4L1 (antibody, V domains shown)
VH: EVQLVESGGGLVQPGGSLRLSCAASGFTFSSYAMSWVRQAPGKGLELVAAINSNGGSTYYADSVKGRFTISRDNAKNTLYLQMSSLRAEDTAVYYCTRNEEFRRGLAYWGQGTLVTVSS
VL: DIQMTQSPSSLSASVGDRVTITCRASENIYSNLAWYQQKPGKAPKLLVYAATNLADGVPSRFSGSGSGTDYTLTISSLQPEDFATYYCQHFWGTPPWTFGQGTKLEIK
notes: Humanized from IL-P7-C05; full-length antibody; also called ILP7C05huVH4 + ILP7C05huVL1
B12: the EC50 was determined as 0.0138 µg/mL in assay [1] and 0.468 µg/mL in assay [2].

B13: IL-P7-C05-H3L3 (antibody, V domains shown)
VH: EVQLVESGGGLVQPGGSLRLSCAASGFTFSSYGMSWVRQAPGKGLELVAAINSNGGSTYYADSVKGRFTISRDNAKNTLYLQMSSLRAEDTAVYYCTRNEEFRRGLAYWGQGTLVTVSS
VL: DIQMTQSPSSLSASVGDRVTITCRASENIYSNLAWYQQKPGKAPKLLIYAASNLQSGVPSRFSGSGSGTDYTLTISSLQPEDFATYYCQHFWGTPPWTFGQGTKLEIK
notes: Humanized from IL-P7-C05; full-length antibody; also called ILP7C05huVH3 + ILP7C05huVL3
Regarding B13, the EC50 is 0.0106 µg/mL in assay [1] and 0.431 µg/mL in assay [2].

B14: IL-P7-C05-H2L1 (antibody, V domains shown)
VH: EVQLVESGGGLVQPGGSLRLSCAASGFTFSSYGMSWVRQAPGKGLELVATINSNGGTTYYADSVKGRFTISRDNAKNTLYLQMSSLRAEDTAVYYCTRNEEFRRGLAYWGQGTLVTVSS
VL: DIQMTQSPSSLSASVGDRVTITCRASENIYSNLAWYQQKPGKAPKLLVYAATNLADGVPSRFSGSGSGTDYTLTISSLQPEDFATYYCQHFWGTPPWTFGQGTKLEIK
notes: Humanized from IL-P7-C05; full-length antibody; also called ILP7C05huVH2 + ILP7C05huVL1
As to B14, the results for the EC50 in assay [1] and in assay [2] were 0.0144 µg/mL and 0.426 µg/mL, respectively.
